{
  "source": "paper PMC6260798",
  "about": "(Biochemistry, 2018)",
  "key": {"UreE [1]": {"target": "T1, UreE (Helicobacter pylori, UniProt Q09064)", "T1 chain": "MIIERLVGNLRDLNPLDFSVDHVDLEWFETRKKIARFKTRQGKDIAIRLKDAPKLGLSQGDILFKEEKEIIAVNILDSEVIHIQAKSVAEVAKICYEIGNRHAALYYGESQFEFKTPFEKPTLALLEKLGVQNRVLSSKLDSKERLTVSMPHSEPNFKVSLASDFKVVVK", "test": "ITC"}, "[2]": {"target": "T2, Helicobacter pylori UreE homodimer (UreE2) (Helicobacter pylori, UniProt Q09064 1-170)", "T2 sequence": "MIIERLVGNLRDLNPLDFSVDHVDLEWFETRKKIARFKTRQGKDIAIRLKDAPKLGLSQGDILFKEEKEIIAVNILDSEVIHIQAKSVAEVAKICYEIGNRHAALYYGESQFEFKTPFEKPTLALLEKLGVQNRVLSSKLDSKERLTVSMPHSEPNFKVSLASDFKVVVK", "test": "SEC-MALS"}, "[3]": {"target": "T2, Helicobacter pylori UreE homodimer …", "test": "ITC"}, "[4]": {"target": "T2, Helicobacter pylori UreE homodimer …", "test": "ITC", "remark": "listed apart in the source"}, "UreE [5]": {"target": "T1, UreE", "test": "fluorescence titration"}},
  "note": "Read-outs that look alike come from different tables or passages of the source.",
  "data": [
    {"binder": "HypA (protein, Ni,Zn-HypA) MHEYSVVSSLIALCEEHAKKNQAHKIERVVVGIGERSAMDKSLFVSAFETFREESLVCKDAILDIVDEKVELECKDCSHVFKPNALDYGVCEKCHSKNVIITQGNEMRLLSLEMLAE", "values": [
      {"measurement": "Kd", "setting": "UreE [1]", "value": "~0.6", "unit": "nM"}
    ]},
    {"binder": "Helicobacter pylori HypA (wild type; apo,Zn-HypA or Ni,Zn-HypA) (natural protein, UniProt P0A0U4 1-117, looked up) MHEYSVVSSLIALCEEHAKKNQAHKIERVVVGIGERSAMDKSLFVSAFETFREESLVCKDAILDIVDEKVELECKDCSHVFKPNALDYGVCEKCHSKNVIITQGNEMRLLSLEMLAE", "values": [
      {"measurement": "stoichiometry N", "setting": "[2]", "value": 1, "unit": "HypA per UreE2"},
      {"measurement": "Kd", "setting": "[3]", "value": 1200, "unit": "nM"},
      {"measurement": "stoichiometry N", "setting": "[3]", "value": 1.4, "unit": "Sites"},
      {"measurement": "Kd", "setting": "[4]", "value": 900, "unit": "nM"},
      {"measurement": "stoichiometry N", "setting": "[4]", "value": 1.4, "unit": "Sites"}
    ]},
    {"binder": "HypA (protein, apo,Zn-HypA, NHS640-labelled UreE2) MHEYSVVSSLIALCEEHAKKNQAHKIERVVVGIGERSAMDKSLFVSAFETFREESLVCKDAILDIVDEKVELECKDCSHVFKPNALDYGVCEKCHSKNVIITQGNEMRLLSLEMLAE", "values": [
      {"measurement": "Kd", "setting": "UreE [5]", "value": "~2000", "unit": "nM"}
    ]}
  ]
}
